Results from patent US20200191797A1.
One block for each binder: values may come before it.

Legend:
[1] = biological target: IgE of pooled serum samples (human); assay: cross-inhibition ELISA; inhibitor 1 ug/ml with pooled sera; C. idella parvalbumin on the plate
[2] = biological target: IgE of pooled serum samples (human); assay: cross-inhibition ELISA; inhibitor 50 ug/ml with pooled sera; C. idella parvalbumin on the plate
[3] = biological target: IgE of pooled serum samples (human); assay: cross-inhibition ELISA; C. idella parvalbumin on the plate; inhibitor concentration not stated

- % inhibition of IgE binding [1]: 40%
- % inhibition of IgE binding [2]: 50%
B1: recombinant cod allergen Gad m 1 (cod parvalbumin) (protein, UniProt Q90YK9 1-109, looked up, not shown: small tags and cut ends)
chain: MAFAGILNDADITAALAACKAEGSFDHKAFFTKVGLAAKSPADIKKVFEIIDQDKSDFVEEDELKLFLQNFSAGARALSDAETKVFLKAGDSDGDGKIGVDEFGAMIKA

- % inhibition of IgE binding [3]: 10%
B2: recombinant aldolase A of grass carp Ctenopharyngodon idella (enzyme, not shown: small tags and cut ends)
chain: MPHAYPFLTPEQKKELSDIALRIVAPGKGILAADESTGSVAKRFQSINAENTEENRRLYRQLLFTADDRVKPCIGGVILFHETLYQKADDGKLFSQLLKERGMVVGIKVDKGVVPLAGTNGETTTQGLDGLYERCAQYKKDGADFAKWRCVLKITSTTPSRLAIIENANVLARYASICQMHGIVPIVEPEILPDGDHDLKRCQYVTEKVLAAVYKALSDHHVYLEGTLLKPNMVTAGHSCSQKNTPQEIAMATVTALRRTVPPAVPGITFLSGGQSEEEATLNLNAMNKCPLHRPWALTFSYGRALQASALKAWGGKKENGKACQEEFIKRALNNSLACVGKYVSSGDKGAAAGESLFVANHAY
